Test results from patent publication US9580487B2, “Method of treating stomach or bowel-related disorders by administering glucagon-like-peptide-2 (GLP-2) analogues” (Zealand Pharma A/S, priority 2005, dated 2017).

Experiments:
[1] = Chemical stability testing: incubation in HCl, NaOH, H2O2 or NH4HCO3 at 40° C., remaining purity by RP-HPLC; format: physicochemical; conditions: 40° C., 2 mg/ml, relative to the purity at T=0
Method: The GLP-2 analogues were dissolved in purified water and subsequently diluted in solutions containing HCl, NaOH, H2O2 or NH4HCO3. The solutions were incubated at 40° C. to produce hydrolysis, deamidation and oxidation products. The samples were analyzed by RP-HPLC and the percentage of remaining intact compound was determined as a measure for the relative stability. The major degradation products were tentatively identified by LC-MS.
The GLP-2 analogues tested and the reference Gly^2-GLP-2, ZP1559 (SEQ ID NO:54), were dissolved in water and subsequently diluted into solutions containing HCl, NaOH, H2O2 or NH4HCO3. The samples were incubated at 40° C. to generate hydrolysis, deamidation and oxidation products, respectively. The compounds were analysed by RP-HPLC for purity of the original main peak and by LC-MS for confirmation of the identity by mass of the main peak and major degradation products.
The GLP-2 analogues were first dissolved in MQW to a concentration of 4 mg/ml and then further diluted in the stress solutions at a 1:1 ratio (e.g. 125 μl plus 125 μl). The final concentrations were 2 mg/ml of the GLP-2 analogues for stress conditions with 0.1 M HCl, 0.01M NaOH, 0.1 M NH4HCO3 and 0.5% H2O2, respectively.
The solutions were incubated at 40° C. in the dark and then diluted in Eluent A to a concentration of 0.5 mg/ml (addition of 750 μl) prior to analyses by RP-HPLC and by LC-MS.
The RP-HPLC analyses were performed on an Agilent Series 1100 HPLC system under control of the ChemStation (Revision A.08.03 [847]) software from Agilent Technologies, Inc. The raw data and the results of the peak integration were deposited on the ChemStore C/S server by the use of Agilent Technologies Revision B01.03 software.
The results are shown in Table 9 as the compound purity measured by RP-HPLC after incubation under stress conditions. This purity is a measure for the remaining intact compound after incubation in stress solutions, relative to the purity measured a T=0.

[2] = Tentative identification of major degradation products in stress test samples by LC-MS; format: physicochemical; conditions: 3 days at 40° C. in 0.5% H2O2
Method: Analytical LC-MS analyses were performed on an Agilent Technologies 1100 HPLC instrument consisting of an on-line degasser, quaternary gradient pump, an auto sampler, a column oven, an UV detector. The HPLC instrument was interfaced with a Micromass LCT (ESI-TOF) mass spectrometer under control of Masslynx 3.5 software, from MicroMass, UK.
Major degradation products in the stress test samples were tentatively identified by the LC-MS method. Any isomers to the parent compounds and minor degradation products were not observed by this analytical LC-MS method.

[3] = tested on: male C57BL mice; assay: Screening for intestinal growth effects (small intestine and colon mass relative to body weight, small intestine-colon sensitivity index); format: in vivo
Method: The ability of the present compounds to stimulate intestinal growth was determined in male C57BL mice. Individual groups (n=6) of mice were given 30 nmol/kg of each compound, s.c, twice daily for ten consecutive days. For comparison purposes other groups of animals were given either an equimolar dose of [Gly2]GLP-2 (SEQ ID NO:54) or vehicle (phosphate buffered saline, pH 7.4) in the same dosing regimen. Twenty-four hours after the last dose of compound had been given the mice were sacrificed and the small intestine (from the pylorus to the cecum) and the colon (intestine distal to cecum) was emptied and weighed. To correct for slight difference in body weight (BW), the organ mass of the small intestine (SI) and colon were expressed relative to BW. The non-selective reference compound [Gly2]GLP-2 (SEQ ID NO:54) has been reported to stimulate gastrointestinal growth in both esophagus, stomach, small intestine and colon and to evaluate differences in growth pattern induced by compounds, the small intestine-colon sensitivity index of compound X was calculated as:
(SI/Colon)X/(SI/Colon)[Gly2]GLP-2%
Compounds with a small intestine-colon sensitivity greater than or equal to 1.05 were considered relatively selective for the small intestine (Table 15).
Compounds with a small intestine-colon sensitivity smaller than or equal to 0.95 were considered relatively selective for the colon (Table 15).

[4] = tested on: male C57BL mice; assay: Dose-response effect on intestinal growth (SI mass, SI-Colon Sensitivity Index, colon and stomach mass); format: in vivo; conditions: 5-405 nmol/kg s.c. b.i.d. for three days, vs vehicle
Method: Values are means±SEM. *: P<0.05 relative to the equimolar dose of [Gly2]GLP-2 (SEQ ID NO:54).
FIG. 2 is a set of graphs showing full dose-response data of four small intestine selective compounds (compound nos. 1846 (SEQ ID NO:34), 1855 (SEQ ID NO:43), 1848 (SEQ ID NO:36), 1858 (SEQ ID NO:46)) on the Small Intestine (SI)-to-Colon Sensitivity Index mice relative to the non-selective reference compound [Gly2]GLP-2 (SEQ ID NO:54). Compounds were administered by subcutaneous injection b.i.d. for three days in C57BL mice at the following doses: 0 (vehicle), 5, 15, 45, 135, 405 nmol/kg (n=6/dose group). Responses at each dose level were compared with responses obtained at the same dose level in pair-treated mice treated with the non-selective reference compound [Gly2]GLP-2 (SEQ ID NO:54). The SI-Colon Sensitivity Index was calculated as SI-mass relative to colon mass and the Sensitivity Index at each dose level was normalized to the response observed with the non-selective reference compound [Gly2]GLP-2 (SEQ ID NO:54). […] Values are means±SEM. *: P<0.05 relative to the equimolar dose of [Gly2]GLP-2.
FIG. 4 is a set of graphs showing full dose-response data of three small intestine selective compounds (compound nos. 1857 (SEQ ID NO:45), 1820 (SEQ ID NO:10), and 1849 (SEQ ID NO:37)) on the Small Intestine (SI)-to-Colon Sensitivity Index mice relative to the non-selective reference compound [Gly2]GLP-2 (SEQ ID NO:54). Compounds were administered by subcutaneous injection b.i.d. for three days in C57BL mice at the following doses: 0 (vehicle), 5, 15, 45, 135, 405 nmol/kg (n=6/dose group). Responses at each dose level were compared with responses obtained at the same dose level in pair-treated mice treated with the non-selective reference compound [Gly2]GLP-2 (SEQ ID NO:54). The SI-Colon Sensitivity Index was calculated as SI-mass relative to colon mass and the Sensitivity Index at each dose level was normalized to the response observed with the non-selective reference compound [Gly2]GLP-2 (SEQ ID NO:54). […] Values are means±SEM. *: P<0.05 relative to the equimolar dose of [Gly2]GLP-2 (SEQ ID NO:54).
Compounds were administered by subcutaneous injection b.i.d. for three days in C57BL mice at the following doses: 0 (vehicle), 5, 15, 45, 135, 405 nmol/kg (n=6/dose group). […] Values are means±SEM. *: P<0.05 relative to the vehicle.
The dose-response effect of 1820 (SEQ ID NO:10), 1855 (SEQ ID NO:43), ZP1846 (SEQ ID NO:34), 1858 (SEQ ID NO:46), 1849 (SEQ ID NO:37), 1848 (SEQ ID NO:36), and 1857 (SEQ ID NO:45) on small intestinal mass was determined in male C57BL mice. Individual groups (n=6) of mice were given 5, 15, 45, 135 or 405 nmol/kg of each compound, s.c, twice daily for three consecutive days. For comparison purposes other groups of animals were given either equimolar doses of [Gly2]GLP-2 (SEQ ID NO:54) or vehicle (phosphate buffered saline, pH 7.4) in the same dosing regimen. Twenty-four hours after the last dose of compound had been given the mice were sacrificed and the small intestine (from the pylorus to the cecum emptied and weighed to determine the effect on small intestinal mass.

[5] = tested on: colonic neoplasms in mice; conditions: cited from earlier work

## H-[Gly2]hGLP-2-OH [Compound 1559, reference compound]
[1]; RP-HPLC
  Purity H2O2 0.5% 3 days: <5%
  Purity HCl 0.1M 12 days: 57%
[1]; pH 8, RP-HPLC
  Purity NH4HCO3 0.1M 6 days: 66%
[2]
  Intact product found by LC-MS after H2O2 stress: No product intact
[3]; 30 nmol/kg s.c. twice daily, ten days, relative to [Gly2]GLP-2
  Preferential growth of small intestine versus colon (small intestine-colon sensitivity): without preferential growth in small intestine or colon
[3]; male C57BL mice, 30 nmol/kg s.c. twice daily for ten days
  colon mass relative to body weight, % [Gly2]GLP-2: 100 % [Gly2]GLP-2
[3]; male C57BL mice, 30 nmol/kg s.c. twice daily for ten days, third value column
  small intestine-colon sensitivity index, (SI/Colon)X/(SI/Colon)[Gly2]GLP-2 %: 100 % [Gly2]GLP-2
[4]
  Growth stimulation of small intestine, colon and stomach mass: produced dose-dependent growth stimulation in small intestine, colon and stomach
[5]
  Growth of colonic neoplasms: accelerate the growth of colonic neoplasms in mice
